Test results taken from article PMC9536601 (2022).

Experiments:
Assay in all cases: SPR
[1] = biological target: T1, Ad6 hexon, on wild-type human adenovirus type 6 virions (human adenovirus type 6)
T1 chain: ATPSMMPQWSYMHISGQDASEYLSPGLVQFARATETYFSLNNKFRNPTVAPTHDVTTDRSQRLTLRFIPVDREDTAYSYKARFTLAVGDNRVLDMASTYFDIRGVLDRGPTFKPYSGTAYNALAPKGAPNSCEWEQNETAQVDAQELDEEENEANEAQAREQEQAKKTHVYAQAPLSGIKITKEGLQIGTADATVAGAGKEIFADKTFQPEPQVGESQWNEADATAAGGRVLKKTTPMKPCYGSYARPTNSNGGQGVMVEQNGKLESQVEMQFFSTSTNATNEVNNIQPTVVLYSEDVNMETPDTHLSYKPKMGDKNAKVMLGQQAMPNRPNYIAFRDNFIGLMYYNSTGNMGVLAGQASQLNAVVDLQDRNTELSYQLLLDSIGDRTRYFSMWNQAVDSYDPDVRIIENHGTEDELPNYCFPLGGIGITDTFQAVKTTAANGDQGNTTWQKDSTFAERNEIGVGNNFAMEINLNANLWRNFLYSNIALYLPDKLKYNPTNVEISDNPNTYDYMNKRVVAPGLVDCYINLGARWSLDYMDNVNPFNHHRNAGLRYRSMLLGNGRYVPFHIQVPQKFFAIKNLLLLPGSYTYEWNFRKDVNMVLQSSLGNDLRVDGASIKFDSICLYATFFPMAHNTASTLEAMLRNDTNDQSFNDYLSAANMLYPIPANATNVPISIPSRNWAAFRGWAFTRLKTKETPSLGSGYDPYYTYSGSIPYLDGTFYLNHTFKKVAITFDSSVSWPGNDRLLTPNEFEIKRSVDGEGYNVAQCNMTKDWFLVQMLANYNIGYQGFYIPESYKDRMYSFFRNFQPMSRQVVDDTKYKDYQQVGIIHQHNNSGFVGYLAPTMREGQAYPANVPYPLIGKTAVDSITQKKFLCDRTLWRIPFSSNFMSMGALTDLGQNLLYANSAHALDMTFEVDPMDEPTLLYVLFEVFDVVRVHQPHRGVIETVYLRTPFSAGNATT

[2] = biological target: T2, Ad2 hexon, on wild-type human adenovirus type 2 virions (human adenovirus type 2, UniProt P03277 1-968)
T2 chain: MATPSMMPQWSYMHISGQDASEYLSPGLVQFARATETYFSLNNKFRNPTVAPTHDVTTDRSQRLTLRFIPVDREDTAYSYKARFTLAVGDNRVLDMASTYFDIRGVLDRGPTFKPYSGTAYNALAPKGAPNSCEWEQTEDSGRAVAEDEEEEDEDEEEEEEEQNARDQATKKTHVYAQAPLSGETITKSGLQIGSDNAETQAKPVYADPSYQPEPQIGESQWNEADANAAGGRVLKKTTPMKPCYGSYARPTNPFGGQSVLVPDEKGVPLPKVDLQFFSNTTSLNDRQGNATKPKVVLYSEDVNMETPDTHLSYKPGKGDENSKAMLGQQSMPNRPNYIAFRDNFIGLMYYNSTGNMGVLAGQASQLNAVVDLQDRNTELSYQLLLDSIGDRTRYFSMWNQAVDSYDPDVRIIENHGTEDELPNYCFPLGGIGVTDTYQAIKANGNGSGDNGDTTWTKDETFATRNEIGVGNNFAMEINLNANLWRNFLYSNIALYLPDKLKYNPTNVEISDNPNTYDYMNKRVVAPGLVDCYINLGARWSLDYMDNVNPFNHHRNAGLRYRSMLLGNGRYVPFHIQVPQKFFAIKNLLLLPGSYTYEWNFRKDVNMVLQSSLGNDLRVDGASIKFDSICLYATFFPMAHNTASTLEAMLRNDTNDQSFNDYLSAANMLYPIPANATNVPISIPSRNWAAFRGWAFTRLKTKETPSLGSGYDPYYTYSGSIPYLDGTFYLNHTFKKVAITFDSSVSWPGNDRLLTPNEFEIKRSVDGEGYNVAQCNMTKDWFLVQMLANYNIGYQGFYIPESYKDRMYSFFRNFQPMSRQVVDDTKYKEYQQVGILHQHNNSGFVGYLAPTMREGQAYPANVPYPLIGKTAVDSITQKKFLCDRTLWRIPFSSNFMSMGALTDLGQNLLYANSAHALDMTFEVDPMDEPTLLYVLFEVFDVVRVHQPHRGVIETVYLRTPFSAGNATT

[3] = biological target: T3, Ad1 hexon, on wild-type human adenovirus type 1 virions (human adenovirus type 1)
T3 chain: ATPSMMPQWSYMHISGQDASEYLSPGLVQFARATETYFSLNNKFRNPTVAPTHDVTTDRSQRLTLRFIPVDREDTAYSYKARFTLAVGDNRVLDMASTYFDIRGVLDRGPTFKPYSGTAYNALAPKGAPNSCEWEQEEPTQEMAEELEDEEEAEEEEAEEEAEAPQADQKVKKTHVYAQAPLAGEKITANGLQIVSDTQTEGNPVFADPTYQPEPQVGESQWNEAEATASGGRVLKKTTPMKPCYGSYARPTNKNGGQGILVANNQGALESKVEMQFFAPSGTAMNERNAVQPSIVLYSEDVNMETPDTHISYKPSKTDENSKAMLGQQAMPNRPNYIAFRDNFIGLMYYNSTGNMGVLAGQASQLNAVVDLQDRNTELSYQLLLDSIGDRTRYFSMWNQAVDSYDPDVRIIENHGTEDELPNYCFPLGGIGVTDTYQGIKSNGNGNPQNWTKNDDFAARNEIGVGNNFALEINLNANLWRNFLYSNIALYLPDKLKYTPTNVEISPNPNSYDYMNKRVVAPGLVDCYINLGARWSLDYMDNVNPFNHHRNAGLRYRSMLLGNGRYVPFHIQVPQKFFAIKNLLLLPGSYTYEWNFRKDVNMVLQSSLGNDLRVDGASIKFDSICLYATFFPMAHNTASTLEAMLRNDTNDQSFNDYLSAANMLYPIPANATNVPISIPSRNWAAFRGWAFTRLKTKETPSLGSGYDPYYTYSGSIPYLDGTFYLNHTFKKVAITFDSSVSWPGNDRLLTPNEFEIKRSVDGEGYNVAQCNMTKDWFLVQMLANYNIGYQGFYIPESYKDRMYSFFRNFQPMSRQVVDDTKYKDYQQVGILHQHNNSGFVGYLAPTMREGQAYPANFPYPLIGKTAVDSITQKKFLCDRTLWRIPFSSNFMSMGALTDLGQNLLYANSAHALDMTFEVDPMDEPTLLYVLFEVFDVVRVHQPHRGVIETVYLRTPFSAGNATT

B1: mouse coagulation factor X (natural protein)
chain 1: ANSFFEEFKKGNLERECMEEICSYEEVREIFEDDEKTKEYWTKYKDGDQCESSPCQNQGACRDGIGGYTCTCSEGFEGKNCELFVRKLCRLDNGDCDQFCREEQNSVVCSCASGYFLGNDGKSCISTAPFPCGKITTGRR
chain 2: VALNTSDSELDLEDALLDEDFLSPTENPIELLNLNETQPERSSDDLVRIVGGRECKDGECPWQALLINEDNEGFCGGTILNEFYILTAAHCLHQARRFKVRVGDRNTEKEEGNEMVHEVDVVIKHNKFQRDTYDYDIAVLRLKTPITFRMNVAPACLPQKDWAESTLMTQKTGIVSGFGRTHEKGRQSNILKMLEVPYVDRNTCKLSTSFSITQNMFCAGYEAKLEDACQGDSGGPHVTRFKNTYYVTGIVSWGEGCARKGKYGIYTKVTTFLKWIDRSMKARVGPTAETPRTAGPPN
modifications: gamma-carboxylated glutamate residues in the Gla domain
- Kd [1]: 0.42 nM
- Kd [2]: 0.76 nM
- Kd [3]: 0.31 nM
